Reference: publication PMC3210390
Substitutions are numbered along the chain they refer to.

Columns and labels:
Tfam WT (mature) [1] = molecular target: T1, Tfam WT (mature) (Homo sapiens, UniProt Q00059 43-246); assay: FRET bending
T1 sequence: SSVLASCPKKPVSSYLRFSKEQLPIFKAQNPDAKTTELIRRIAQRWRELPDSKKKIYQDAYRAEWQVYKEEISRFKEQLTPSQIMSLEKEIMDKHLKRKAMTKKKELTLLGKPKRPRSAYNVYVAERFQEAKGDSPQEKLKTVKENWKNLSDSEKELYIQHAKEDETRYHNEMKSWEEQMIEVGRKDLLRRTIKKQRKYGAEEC

Tfam L6 [2] = molecular target: T2, Tfam L6 (Homo sapiens, UniProt Q00059 43-246, K136A;H137A;K139A;R140A;K146A;K147A); assay: FRET bending
T2 sequence: T1 sequence with K94A, H95A, K97A, R98A, K104A, K105A

Tfam T77A [3] = molecular target: T3, Tfam T77A (Homo sapiens, UniProt Q00059 43-246, T77A); assay: FRET bending
T3 sequence: T1 sequence with T35A

Tfam Y162A [4] = molecular target: T4, Tfam Y162A (Homo sapiens, UniProt Q00059 43-246, Y162A); assay: FRET bending
T4 sequence: T1 sequence with Y120A

Tfam WT (mature) [5] = molecular target: T1, Tfam WT (mature); assay: intrinsic Trp fluorescence quenching
Tfam HMG-box B = molecular target: T5, Tfam HMG-box B (Homo sapiens, UniProt Q00059 153-222); assay: intrinsic Trp fluorescence quenching
T5 sequence: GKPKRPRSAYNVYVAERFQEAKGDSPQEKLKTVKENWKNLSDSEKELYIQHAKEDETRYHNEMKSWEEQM

Tfam L6 [6] = molecular target: T2, Tfam L6; assay: intrinsic Trp fluorescence quenching
Tfam T77A [7] = molecular target: T3, Tfam T77A; assay: intrinsic Trp fluorescence quenching
Tfam HMG-box A = molecular target: T6, Tfam HMG-box A (Homo sapiens, UniProt Q00059 43-122); assay: intrinsic Trp fluorescence quenching
T6 sequence: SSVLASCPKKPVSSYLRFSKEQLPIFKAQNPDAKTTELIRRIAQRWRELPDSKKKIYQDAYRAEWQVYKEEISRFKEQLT

Tfam Y162A [8] = molecular target: T4, Tfam Y162A; assay: intrinsic Trp fluorescence quenching

B1: LSP 28 bp Cy3/Cy5 (dsDNA)
DNA 1: TGTTAGTTGGGGGGTGACTGTTAAAAGT
DNA 2: ACTTTTAACAGTCACCCCCCAACTAACA
Binder B1 has a binding signal (Tfam WT (mature) [1]) of 36.5 ± 0.8 % FRET efficiency, a binding signal (Tfam L6 [2]) of 26.1 ± 0.6 % FRET efficiency and a binding signal (Tfam T77A [3]) of 31.4 ± 0.2 % FRET efficiency. For the same binder, the binding signal (Tfam Y162A [4]) was 29.4 ± 0.6 % FRET efficiency.

B2: LSP 28 bp (dsDNA)
DNA 1: TGTTAGTTGGGGGGTGACTGTTAAAAGT
DNA 2: ACTTTTAACAGTCACCCCCCAACTAACA
B2 was tested, and the Kd (Tfam WT (mature) [5]) was 6 ± 0.9 nM, the Kd (Tfam HMG-box B) was 411 ± 46 nM and the Kd (Tfam L6 [6]) was 10.1 ± 1.2 nM. The Kd (Tfam T77A [7]) was 7.6 ± 1.1 nM, the Kd (Tfam HMG-box A) was 6.5 ± 1.2 nM and the Kd (Tfam Y162A [8]) was 12.3 ± 1.8 nM.
